Results on 6 molecules are retold here after patent US20220396632A1 (VERSEAU THERAPEUTICS, published 2022).

No end group written: not given here. *: point of attachment. Biotin = O=C1N[C@H]2[C@H](CS[C@H]2CCCCC(=O)*)N1

Assay [1] has as its target T1, Biotin PSGL-1(56-70) peptide (human).
T1 peptide: Ac-ETEPPEMLRNSTDTTGK(Biotin)
Put plainly: ELISA, plate-bound biotin peptide.

Assay [2] has as its target T2, Biotin PSGL-1(42-62) peptide, unmodified (human, C-terminal Lys-biotin).
T2 construct: Residues 42-62 followed by GGGK-biotin; also called WT; wild-type
T2 peptide: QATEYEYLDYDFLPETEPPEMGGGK
The experiment in a line: capture ELISA; against 3 x sY peptide. On the procedure:
Two ELISA methods were performed. One procedure detected mAb binding to its plate-immobilized target and the other measured the immobilized antibody's ability to capture biotinylated PSGL-1₄₂₋₆₂. […] The plate was incubated for 45 min at 37° C. Plates were washed 3 times with wash buffer (PBS containing 0.05% tween 20, pH 7.4) and a single concentration (2 to 500 nM) or serially diluted (0.002-100 nM) anti-PSGL-1 mAb was added (25 ul/well) in assay buffer into appropriate wells. The plate was incubated for 45 min at 37° C., washed 3 times, and an appropriate HRP-conjugated secondary antibody added (25 ul/well) (HRP goat anti-mouse or anti-human IgG). After 45 min incubation at 37° C., the plate was washed, and antibody bound to plate-immobilized target was determined at A450 nm using HRP substrate (3,3′,5,5′-etramethylbenzidine (TMB)). For each antibody, duplicate values were averaged and assay background was subtracted. Except for the following, ELISAs involving plate-immobilized mAb capturing of biotinylated PSGL-1₄₂₋₆₂ peptides was performed in the same manner as described above: 3 ug/mL/25 ul per well of mAb was coated directly onto microtiter plate wells; biotinylated unmodified or sulfotyrosine PSGL-1₄₂₋₆₂ was serially diluted (3 nM-3 uM) into appropriate wells, and antibody-bound peptide was detected using HRP-streptavidin (Jackson Immunoresearch, Cat. #016-030-084).
(ELISA stands for enzyme-linked immunosorbent assay.)

Assay [3] deals with T3, Biotin Y46,48,51(SO3) PSGL-1(42-62) peptide (human, sulfotyrosine at Y46, Y48 and Y51; C-terminal Lys-biotin).
T3 construct: also called fully sulfated N-terminal PSGL-1 peptide
T3 peptide: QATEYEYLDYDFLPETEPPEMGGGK
Put plainly: ELISA, plate-bound mAb captures biotin peptide. In a few lines:
(§1)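 Direct format: anti-PSGL-1 mAb at a single concentration (2–500 nM) or serially diluted (0.002–100 nM) on immobilized target, detected with HRP anti-IgG and TMB at A450; 45 min steps at 37° C. Capture format: coated mAb (3 ug/mL) binds biotinylated unmodified or sulfotyrosine peptide (3 nM–3 uM), detected with HRP-streptavidin.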

Assay [4] has as its target T4, Biotin sY46 PSGL-1(42-62) peptide (human, sulfotyrosine at Y46; C-terminal Lys-biotin).
T4 peptide: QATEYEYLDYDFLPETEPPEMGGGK
Put plainly: ELISA, plate-bound mAb captures biotin peptide. In a few lines:
as §1

In assay [5] the target is T5, Biotin PSGL-1(42-62) F53A peptide (C-terminal Lys-biotin).
T5 peptide: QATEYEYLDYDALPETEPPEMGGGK
Put plainly: ELISA; against wild-type PSGL-1 42-62.

In assay [6] the target is T6, Biotin PSGL-1(105-125) peptide (human, N-terminal acetyl; C-terminal Lys-biotin).
T6 peptide: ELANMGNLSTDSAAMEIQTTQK
The experiment in a line: ELISA, streptavidin-immobilized biotin peptide [cont.]. The protocol:
(§2) A typical ELISA experiment involved binding of a single concentration or serially diluted mAb in assay buffer (3% BSA in PBS containing 0.05% Tween®20, pH 7.4) onto BSA blocked high binding microtiter plate half-wells (Corning Cat. #3690), which contained PSGL-1 protein or streptavidin-immobilized biotin peptide. After incubation for 45 min. at 37° C., the plate was washed 3 times with wash buffer (PBS containing 0.05% Tween®20, pH 7.4), and an appropriate HRP-conjugated secondary antibody added (25 ul/well) (HRP goat anti-mouse or anti-human IgG). After 45 min. incubation at 37° C., the plate was washed and antibody bound to plate-immobilized target was determined at A450 nm using HRP substrate (3,3′5,5′-tetramethylbenzidine (TMB)). For each antibody, duplicate values were averaged and assay background subtracted.

The target in assay [7] is T7, Biotin PSGL-1(290-310) peptide (human, N-terminal acetyl; C-terminal Lys-biotin).
T7 peptide: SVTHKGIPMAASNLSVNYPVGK
The description is as above. On the procedure: as §2

B1: 2E12 (antibody, V domains shown)
VH: QVQLQQSGAELARPGASVKLSCKASGYTFTNYGLNWVKQRTGQGLEWIGEIYPRSGNTYYNEKFKGKATLTADKSSSTAYMQLSSLTSEDSAVYFCATEGAYWGQGTLVTVSA
VL: DIVMTQTPLTLSVTIGQPASISCKSSQSLLHGNGKTYLNWLLQRPGQSPKLLIYLVSKLESGIPDRFSGSGSGTDFTLEISRVEAEDLGIYYCLQSTHFPRTFGGGTKLEIK
notes: Mouse hybridoma mAb; only variable domains given
On to B1, for which, in assay [1], the binding result is given as “binds”.

B2: 03D07 (antibody, IgG4, V domains shown)
VH: EVKLLESGGGLVQPGGSLRLSCAASGFTFSSYALSWVRQAPGKGLEWVSAISGSGGNTYYADSVKGRFTISRDNSKNTLYLQMNSLRAEDTAVYYCAKVVGATNYWGQGTLVTVSS
VL: DIVMTQTPLSLPVTLGQPASISCRSSQSLVYSDGHTYLSWFHQRPGQSPRRLIYKVSIRDSGVPDRFSGSGSGTDFTLKISRVEAEDVGVYYCMQRLQIPLTFGGGTKVEIK
Take B2: in assay [2], the “EC50/EC50 3x(SO3)Y” value is more than 100 fold. For the same molecule, the response in assay [3] was half-maximal at 39.4 nM (EC50). In addition, in assay [4], the 50% effective concentration (EC50) (in general, the concentration giving half of the maximal effect) came out at 971 nM and the “fold stronger binding than to the unmodified peptide” value is approximately 10 fold.

B3: 5E12 (antibody, V domains shown)
VH: EIQLQQSGAELVRPGASVKLSCTASGFNIKDDYIHWVKQRPEQGLEWIGRIDPANGNTKSAPKFQDKATITADTSSNTAYLHLSSLTSEDTAVYYCSIRFAYWGQGTLVTVSA
VL: DVVMTQTPLSLSVSLGDQASISCRSSQSLVYRNGDTYLHWFLQKPGQSPKLLIYKVSNRFSGVPDRFSGSGSGTDFTLKISRVEAEDLGIYFCSQNTHVPYTFGGGTKLEIK
notes: as for B1
For the molecule B3, in assay [1], the binding result is “binds”.

B4: 19I01 (antibody, V domains shown)
VH: EVQLVESGGGLVKPGGSRKLSCAASGFTFSDYGMHWVRQAPEKGLEWVAYISSGSSTIYYADTVKGRFTISRDNAKNTLFLQMTSLRSEDTAMYYCARGVDGYWGQGTTLTVSS
VL: DVVMTQTPLSLPVSLGDQASISCRSSQSLVHSNGNTYLHWYLQKPGQSPKFLIYKVSNRFSGVPDRFSGSGSGTDFTLKISRVEAEDLGVYFCSQTTHVPLTFGAGTKLELK
notes: From mouse immunisation; only variable domains given; also called 19101
In assay [5], B4 displayed an EC50Ala/EC50 wt of 24.6 fold.

B5: 20I15 (antibody, V domains shown)
VH: EVKLVESGGGLVQPGGSLSLSCAASGFTFTDYYMSWVRQPPGKALEWLGFIRNKANGYTTEYSASVKGRFTISRDNSQSILYLQMNALRAEDSATYYCARTYLRRGYFDVWGTGTTVTVSS
VL: DIVLTQSPASLAVSLGQRATISCRASKSVSTSGYSYMHWFQQKPGQPPKLLIYLASNLESGVPARFSGSGSGTDFTLNIHPVEEEDAATYYCQHSRELPLTFGAGTKLELK
notes: From mouse immunisation; only variable domains given; also called 20115
Take B5: the “EC50/EC50 3x(SO3)Y” value in assay [2] is approximately 10 fold. In addition, the concentration for a half-maximal effect (EC50) in assay [3] is 292 nM; in assay [4], approximately 3000 nM.

B6: 18F02 (antibody, V domains shown)
VH: QVQLQQPGAELVKPGASVKLSCKASGYTFTSYWMHWVKQRPGQGLEWIGMIHPNSGRTNYNEKFKSKATLTVDKSSSTAYMQLSSLTSEDSAVYYCARSDYWGQGTTLTVSS
VL: DIVMTQAAFSNPVTLGTSASISCRSSKSLLHSDGITYLYWFLQRPGQSPQLLIYRMSNLASGVPDRFSGSGSGTDFTLRISRVEAEDVGVYYCAQMLEFPRTFGGGTKLEIK
notes: From mouse immunisation; only variable domains given
On to B6, for which the EC50Ala/EC50 wt in assay [5] turned out to be 59.2 fold. The binding result in assay [6] and in assay [7] was “no binding (tested: 10 nM)” in each case.
